Numbering of substitutions follows the chain as printed. Each block holds one binder with its values, some of them ahead of it.
What was measured:
[1] = target: T1, CTNI quality control recombinant antigen (human, UniProt P19429 1-210, limits assumed); experiment: BLI, antibody on AMC sensor, cTnI in solution
T1 construct: Recombinant antigen produced by the applicant; also called CTNI quality control recombinant protein (antigen produced by the company); cardiac troponin I
Experimental: With an AMC sensor, the purified antibody was diluted to 10 μg/ml with PBST, and CTNI quality control recombinant protein (antigen produced by the company) was gradient diluted with PBST to 769.2 nmol/ml, 384.6 nmol/ml, 192.3 nmol/ml, 96.2 nmol/ml, 48.1 nmol/ml, 24 nmol/ml, 12 nmol/ml, and 0 nmol/ml.

[2] = target: T1, CTNI quality control recombinant antigen; experiment: indirect ELISA, cTnI coated 1 ug/ml, antibody 12.346 ng/ml
Experimental: (§1) CTNI quality control recombinant antigen was diluted to 1 μg/ml with a coating solution and coated a microplate, 100 μL per well, overnight at 4° C.; on the next day, the microplate was washed with a washing solution twice and patted dry; a blocking solution (20% of BSA+80% of PBS) was added, 120 μL per well, 37° C., 1 h, patted dry; the diluted cTnI monoclonal antibodies were added, 100 μL/well, 37° C., 30 min; the microplate was washed with a washing solution 5 times, patted dry; goat anti-mouse IgG-HRP, 100 μL per well, 37° C., 30 min; the microplate was washed with a washing solution 5 times, patted dry; a color-developing solution A (50 μL/well) was added, a color-developing solution B (50 μL/well) was added, 10 min; a stop solution was added, 50 μL/well; OD values were read on microplate reader at 450 nm (reference, 630 nm).

[3] = target: T1, CTNI quality control recombinant antigen; experiment: indirect ELISA, cTnI coated 1 ug/ml, antibody 0.457 ng/ml
Experimental: as §1

[4] = target: T1, CTNI quality control recombinant antigen; experiment: indirect ELISA, cTnI coated 1 ug/ml, antibody 0 ng/ml (blank)
Experimental: as §1

[5] = target: T1, CTNI quality control recombinant antigen; experiment: indirect ELISA, cTnI coated 1 ug/ml, antibody 4.115 ng/ml
Experimental: as §1

[6] = target: T1, CTNI quality control recombinant antigen; experiment: indirect ELISA, cTnI coated 1 ug/ml, antibody 0.152 ng/ml
Experimental: as §1

[7] = target: T1, CTNI quality control recombinant antigen; experiment: indirect ELISA, cTnI coated 1 ug/ml, antibody 1.372 ng/ml
Experimental: as §1

[8] = target: T1, CTNI quality control recombinant antigen; experiment: indirect ELISA, cTnI coated 1 ug/ml, antibody 0.051 ng/ml
Experimental: as §1

T1 sequence (P19429 whole entry): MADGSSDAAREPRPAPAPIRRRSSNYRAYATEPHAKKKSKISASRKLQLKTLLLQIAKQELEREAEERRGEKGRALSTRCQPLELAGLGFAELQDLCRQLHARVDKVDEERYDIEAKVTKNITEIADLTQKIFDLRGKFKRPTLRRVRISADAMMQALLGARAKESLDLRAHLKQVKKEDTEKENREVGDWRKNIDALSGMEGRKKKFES

B3: Mutation 1-34 (antibody)
heavy: EVQMVESGGGLLKPGGSLKLSCAASGFTYSNYAMSWVRQTPEKRLEWVATISSGGSYSFYPDSVKGRFTISRDNAKNTLYLQMLSLRSEDTAMYYCARRDNYPGSSFMDYWGQGSSVTVSSAKTTPPSVYPLAPGSAAQTNSMVTLGCLVKGYFPEPVTVTWNSGSLSSGVHTFPAVLQSDLYTLSSSVTVPSSTWPSQTVTCNVAHPASSTKVDKKIVPRDCGCKPCICTVPEVSSVFIFPPKPKDVLTITLTPKVTCVVVDISKDDPEVQFSWFVDDVEVHTAQTKPREEQFNSTFRSVSELPIMHQDWLNGKEFKCRVNSAAFPAPIEKTISKTKGRPKAPQVYTIPPPKEQMAKDKVSLTCMITNFFPEDITVEWQWNGQPAENYKNTQPIMDTDGSYFVYSKLNVQKSNWEAGNTFTCSVLHEGLHNHHTEKSLSHSPG
light: DIQMTQTSSSLSASLGDRVTISCRASQDITNYLNWYQQKPDGTIKLLIYYTSRIHSGVSSRFSGSGSGTDYSLTISNLEQEDIATYFCQQGNTIPLTFDTGTKLELKRADAAPTVSIFPPSSEQLTSGGASVVCFLNNFYPKDINVKWKIDGSERQNGVLNSWTDQDSKDSTYSMSSTLTLTKDEYERHNSYTCEATHKTSTSPIVKSFNRNEC
notes: assembled FR/CDR/constant
Kd [1]: 8.44 nM | koff [1]: 0.000255 s⁻¹ | kon [1]: 30200 M⁻¹ s⁻¹

B5: Mutation 1-42 (antibody)
heavy: B3 heavy with P103Y
light: B3 light with D28E, N92H
notes: assembled FR/CDR/constant
Kd [1]: 3.09 nM | koff [1]: 0.000109 s⁻¹ | kon [1]: 35200 M⁻¹ s⁻¹

B8: Mutation 1-37 (antibody)
heavy: B3 heavy with Y29F, P103Y
light: B3 light with I54L, N92H, I94L
notes: assembled FR/CDR/constant
Kd [1]: 4.2 nM | koff [1]: 0.000299 s⁻¹ | kon [1]: 71000 M⁻¹ s⁻¹

B10: Mutation 5 (antibody)
heavy: B3 heavy with S53T, F59Y, P103Y, S106T
light: B3 light with N31Q, T51S
notes: light chain unchanged from WT; heavy chain assembled FR/CDR/constant
OD450 (reference 630 nm) [2]: 1.32 OD | OD450 (reference 630 nm) [3]: 0.098 OD | OD450 (reference 630 nm) [4]: 0.03 OD | OD450 (reference 630 nm) [5]: 0.569 OD | OD450 (reference 630 nm) [6]: 0.072 OD | OD450 (reference 630 nm) [7]: 0.214 OD | OD450 (reference 630 nm) [8]: 0.054 OD

B12: Mutation 1-43 (antibody)
heavy: B3 heavy with Y29F, F59Y, S106T
light: B3 light with I54L
notes: assembled FR/CDR/constant
Kd [1]: 5.37 nM | koff [1]: 0.000248 s⁻¹ | kon [1]: 46100 M⁻¹ s⁻¹

B13: Mutation 1-46 (antibody)
heavy: B3 heavy with P103Y, S106T
light: B3 light with D28E, I54L, N92H, I94L
notes: assembled FR/CDR/constant
Kd [1]: 4.93 nM | koff [1]: 0.000274 s⁻¹ | kon [1]: 55600 M⁻¹ s⁻¹

B16: Mutation 3 (antibody)
heavy: B3 heavy with F59Y, R99K, P103Y, S106T
light: B3 light with T51S
notes: assembled FR/CDR/constant
OD450 (reference 630 nm) [2]: 1.78 OD | OD450 (reference 630 nm) [3]: 0.172 OD | OD450 (reference 630 nm) [4]: 0.011 OD | OD450 (reference 630 nm) [5]: 1.04 OD | OD450 (reference 630 nm) [6]: 0.068 OD | OD450 (reference 630 nm) [7]: 0.479 OD | OD450 (reference 630 nm) [8]: 0.049 OD

B17: Mutation 1-38 (antibody)
heavy: B3 heavy with S106T
light: B3 light with I54L
notes: assembled FR/CDR/constant
Kd [1]: 7.74 nM | koff [1]: 0.00057 s⁻¹ | kon [1]: 73700 M⁻¹ s⁻¹

B18: Mutation 1-35 (antibody)
heavy: B3 heavy with Y29F, F59Y, P103F, S106T
light: B3 light with I54L, N92H, I94L
notes: assembled FR/CDR/constant
Kd [1]: 5.25 nM | koff [1]: 0.000161 s⁻¹ | kon [1]: 30700 M⁻¹ s⁻¹

B19: Mutation 1-40 (antibody)
heavy: B3 heavy with F59Y, P103F, S106T
light: B3 light with D28E, I94L
notes: assembled FR/CDR/constant; Same printed sites as Mutation 1-4
Kd [1]: 3.12 nM | koff [1]: 0.000262 s⁻¹ | kon [1]: 83900 M⁻¹ s⁻¹

B20: Mutation 1-41 (antibody)
heavy: B3 heavy with Y29F, P103F
light: B3 light with D28E, I54L, I94L
notes: assembled FR/CDR/constant
Kd [1]: 9.24 nM | koff [1]: 0.000774 s⁻¹ | kon [1]: 83800 M⁻¹ s⁻¹

B21: Mutation 2 (antibody)
heavy: B3 heavy with S53T, F59Y, P103Y, S106T
light: B3 light with N31Q
notes: assembled FR/CDR/constant
OD450 (reference 630 nm) [2]: 1.95 OD | OD450 (reference 630 nm) [3]: 0.248 OD | OD450 (reference 630 nm) [4]: 0 OD | OD450 (reference 630 nm) [5]: 1.44 OD | OD450 (reference 630 nm) [6]: 0.072 OD | OD450 (reference 630 nm) [7]: 0.728 OD | OD450 (reference 630 nm) [8]: 0.058 OD

Results, then the binder that gave them:

Kd [1]: 33.3 nM | koff [1]: 0.000128 s⁻¹ | kon [1]: 3840 M⁻¹ s⁻¹
B1: WT 1-1 (antibody, V domains shown)
VH: QVQLQQSGTELAKPGASVKFSCKASDYTFSTYWMYWIKQRPGQGLEWIGYINPSTGHTEYNQKFKDKATLTADKSSSTAYMQLNSLTSEDSAVYYCARRYYGPFAMDYWGQGTSVTVSS
VL: EIFLTQSPAIMSASPGEKVTMTCSASSSVSYAHWYQQKSGTSPKRWIYDSSKIASGIPVRFSGSGSGTSYSLTISSMEAEDAATYYCQNWSTNPYTFGGGTKLEIKR

Kd [1]: 8.35 nM | koff [1]: 0.000743 s⁻¹ | kon [1]: 89000 M⁻¹ s⁻¹
B2: WT 1-5 (antibody, V domains shown)
VH: B1 VH with T31S, I51L, R99K, Y101W
VL: B1 VL

OD450 (reference 630 nm) [2]: 1.21 OD | OD450 (reference 630 nm) [3]: 0.098 OD | OD450 (reference 630 nm) [4]: 0.029 OD | OD450 (reference 630 nm) [5]: 0.456 OD | OD450 (reference 630 nm) [6]: 0.069 OD | OD450 (reference 630 nm) [7]: 0.208 OD | OD450 (reference 630 nm) [8]: 0.061 OD
B4: Mutation 4 (antibody)
heavy: B3 heavy with F59Y, R99K, P103Y, S106T
light: B3 light with N31Q, T51S
notes: as for B10

Kd [1]: 6.25 nM | koff [1]: 0.000509 s⁻¹ | kon [1]: 81400 M⁻¹ s⁻¹
B6: Mutation 1-39 (antibody)
heavy: B3 heavy with Y29F, F59Y
light: B3 light with N92H
notes: assembled FR/CDR/constant

Kd [1]: 9.27 nM | koff [1]: 0.000774 s⁻¹ | kon [1]: 83500 M⁻¹ s⁻¹
B7: Mutation 1-36 (antibody)
heavy: B3 heavy with F59Y, P103Y, S106T
light: B3 light with D28E, I94L
notes: assembled FR/CDR/constant

Kd [1]: 2.87 nM | koff [1]: 9.47e-05 s⁻¹ | kon [1]: 33000 M⁻¹ s⁻¹
B9: Mutation 1-47 (antibody)
heavy: B3 heavy with Y29F, F59Y
light: B3 light with I94L
notes: assembled FR/CDR/constant

Kd [1]: 3.53 nM | koff [1]: 0.000171 s⁻¹ | kon [1]: 48500 M⁻¹ s⁻¹
B11: Mutation 1-44 (antibody)
heavy: B3 heavy with F59Y
light: B3 light with I54L, N92H, I94L
notes: assembled FR/CDR/constant

Kd [1]: 7.04 nM | koff [1]: 0.000583 s⁻¹ | kon [1]: 82800 M⁻¹ s⁻¹
B14: Mutation 1-48 (antibody)
heavy: B3 heavy with F59Y, S106T
light: B3 light with D28E
notes: assembled FR/CDR/constant

Kd [1]: 9.02 nM | koff [1]: 0.00019 s⁻¹ | kon [1]: 21100 M⁻¹ s⁻¹
B15: Mutation 1-45 (antibody)
heavy: B3 heavy with Y29F, P103F, S106T
light: B3 light with D28E
notes: assembled FR/CDR/constant

Reference: patent US20250145694A1 (GUANGDONG FEIPENG BIOLOGICAL, published 2025)
